Experimental data reported in publication PMC3702509, “Label Free Fragment Screening Using Surface Plasmon Resonance as a Tool for Fragment Finding – Analyzing Parkin, a Difficult CNS Target” (PLoS ONE, 2013).

B1: Parkin domain R0RBR (residues 141-465) (domain or fragment, human, UniProt O60260-1 141-465, looked up)
chain: SIYNSFYVYCKGPCQRVQPGKLRVQCSTCRQATLTLTQGPSCWDDVLIPNRMSGECQSPHCPGTSAEFFFKCGAHPTSDKETSVALHLIATNSRNITCITCTDVRSPVLVFQCNSRHVICLDCFHLYCVTRLNDRQFVHDPQLGYSLPCVAGCPNSLIKELHHFRILGEEQYNRYQQYGAEECVLQMGGVLCPRPGCGAGLLPEPDQRKVTCEGGNGLGCGFAFCRECKEAYHEGECSAVFEASGTTTQAYRVDERAAEQARWEAASKETIKKTTKPCPRCHVPVEKNGGCMHMKCPQPQCRLEWCWNCGCEWNRVCMGDHWFDV
notes: Parkin residues 141-465 (NM_004562.1), R0, R1, IBR and R2 domains; Cloned into the Champion pET SUMO vector; The Sumo tag was removed with SENP1, and the protein is called untagged in the SPR methods; also called R0RBR Domain; source: E. coli BL21 DE3, purified (Ni sepharose, Mono Q, SENP1 cleavage, Superdex 200)
B2: His-tagged ubiquitin-like domain of Parkin (UblD, residues 1-76) (domain or fragment, human, UniProt O60260-1 1-76, looked up)
chain: MIVFVRFNSSHGFPVEVDSDTSIFQLKEVVAKRQGVPADQLRVIFAGKELRNDWTVQNCDLDQQSIVHIVQRPWRK
notes: Parkin residues 1-76 (NM_004562.1), ubiquitin-like domain; also called His-UblD; source: E. coli BL21 DE3, purified (nickel sepharose, dialysed for Biacore); not shown: His6, C-terminal, kept

How the values were obtained:
Test in all cases: SPR; untagged R0RBR immobilised by amine coupling (10 mM acetic acid pH 5.0) on a CM5 chip; protein ligands injected; 25°C; 10 mM HEPES pH 7.4, 150 mM NaCl, 0.005% Tween-20, 4 mM reducing agent; 1:1 binding model
Conditions in all cases: both partners purified
[1] = target: T1, UbcH7, E2 ubiquitin conjugating enzyme (UBE2L3 residues 1-154) (human, UniProt P68036-1 1-154)
T1 construct: UBE2L3 (UbcH7) residues 1-154 from NM_003347.2; UbcH7 was also bought from Boston Biochem. TEV cleavage probably leaves SS at the N-terminus (surmised); also called E2 UbcH7; source: E. coli BL21 DE3, purified (nickel sepharose, TEV cleavage, Superdex 200); not shown: His8, N-terminal, cleaved
T1 sequence (P68036 whole entry, the tested form may be a part): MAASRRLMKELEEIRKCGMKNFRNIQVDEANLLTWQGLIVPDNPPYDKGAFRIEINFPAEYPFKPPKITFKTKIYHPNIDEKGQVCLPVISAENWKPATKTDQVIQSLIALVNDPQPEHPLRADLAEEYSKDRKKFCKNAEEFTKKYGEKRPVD

Ubiquitin = target: T2, Ubiquitin (UniProt P0CG47 1-76)
T2 construct: ubiquitin, the cut product of a polyubiquitin or fusion precursor; neither species nor construct is stated; also called Ubq; source: bought: Boston Biochem

[2] = target: B1

Kd [1] [µM] | Kd (Ubiquitin) [µM] | Kd [2] [µM] | Binder
7.1 | 96 |  | B1
 |  | 6 | B2
